Patent publication US20250161440A1 (ABCENTRA, published 2025)

Molecular target: oxidized LDL (oxLDL) (UniProt P04114 28-4563, limits assumed, oxidized); the kind of oxidation used in the in vitro assay is not stated (the filing says in general that oxidized LDL may carry malondialdehyde groups on lysines and histidines, or be oxidized by …)
Test: cell-based or functional assay

Chain of oxidized LDL (oxLDL) (P04114 28-4563 limits assumed): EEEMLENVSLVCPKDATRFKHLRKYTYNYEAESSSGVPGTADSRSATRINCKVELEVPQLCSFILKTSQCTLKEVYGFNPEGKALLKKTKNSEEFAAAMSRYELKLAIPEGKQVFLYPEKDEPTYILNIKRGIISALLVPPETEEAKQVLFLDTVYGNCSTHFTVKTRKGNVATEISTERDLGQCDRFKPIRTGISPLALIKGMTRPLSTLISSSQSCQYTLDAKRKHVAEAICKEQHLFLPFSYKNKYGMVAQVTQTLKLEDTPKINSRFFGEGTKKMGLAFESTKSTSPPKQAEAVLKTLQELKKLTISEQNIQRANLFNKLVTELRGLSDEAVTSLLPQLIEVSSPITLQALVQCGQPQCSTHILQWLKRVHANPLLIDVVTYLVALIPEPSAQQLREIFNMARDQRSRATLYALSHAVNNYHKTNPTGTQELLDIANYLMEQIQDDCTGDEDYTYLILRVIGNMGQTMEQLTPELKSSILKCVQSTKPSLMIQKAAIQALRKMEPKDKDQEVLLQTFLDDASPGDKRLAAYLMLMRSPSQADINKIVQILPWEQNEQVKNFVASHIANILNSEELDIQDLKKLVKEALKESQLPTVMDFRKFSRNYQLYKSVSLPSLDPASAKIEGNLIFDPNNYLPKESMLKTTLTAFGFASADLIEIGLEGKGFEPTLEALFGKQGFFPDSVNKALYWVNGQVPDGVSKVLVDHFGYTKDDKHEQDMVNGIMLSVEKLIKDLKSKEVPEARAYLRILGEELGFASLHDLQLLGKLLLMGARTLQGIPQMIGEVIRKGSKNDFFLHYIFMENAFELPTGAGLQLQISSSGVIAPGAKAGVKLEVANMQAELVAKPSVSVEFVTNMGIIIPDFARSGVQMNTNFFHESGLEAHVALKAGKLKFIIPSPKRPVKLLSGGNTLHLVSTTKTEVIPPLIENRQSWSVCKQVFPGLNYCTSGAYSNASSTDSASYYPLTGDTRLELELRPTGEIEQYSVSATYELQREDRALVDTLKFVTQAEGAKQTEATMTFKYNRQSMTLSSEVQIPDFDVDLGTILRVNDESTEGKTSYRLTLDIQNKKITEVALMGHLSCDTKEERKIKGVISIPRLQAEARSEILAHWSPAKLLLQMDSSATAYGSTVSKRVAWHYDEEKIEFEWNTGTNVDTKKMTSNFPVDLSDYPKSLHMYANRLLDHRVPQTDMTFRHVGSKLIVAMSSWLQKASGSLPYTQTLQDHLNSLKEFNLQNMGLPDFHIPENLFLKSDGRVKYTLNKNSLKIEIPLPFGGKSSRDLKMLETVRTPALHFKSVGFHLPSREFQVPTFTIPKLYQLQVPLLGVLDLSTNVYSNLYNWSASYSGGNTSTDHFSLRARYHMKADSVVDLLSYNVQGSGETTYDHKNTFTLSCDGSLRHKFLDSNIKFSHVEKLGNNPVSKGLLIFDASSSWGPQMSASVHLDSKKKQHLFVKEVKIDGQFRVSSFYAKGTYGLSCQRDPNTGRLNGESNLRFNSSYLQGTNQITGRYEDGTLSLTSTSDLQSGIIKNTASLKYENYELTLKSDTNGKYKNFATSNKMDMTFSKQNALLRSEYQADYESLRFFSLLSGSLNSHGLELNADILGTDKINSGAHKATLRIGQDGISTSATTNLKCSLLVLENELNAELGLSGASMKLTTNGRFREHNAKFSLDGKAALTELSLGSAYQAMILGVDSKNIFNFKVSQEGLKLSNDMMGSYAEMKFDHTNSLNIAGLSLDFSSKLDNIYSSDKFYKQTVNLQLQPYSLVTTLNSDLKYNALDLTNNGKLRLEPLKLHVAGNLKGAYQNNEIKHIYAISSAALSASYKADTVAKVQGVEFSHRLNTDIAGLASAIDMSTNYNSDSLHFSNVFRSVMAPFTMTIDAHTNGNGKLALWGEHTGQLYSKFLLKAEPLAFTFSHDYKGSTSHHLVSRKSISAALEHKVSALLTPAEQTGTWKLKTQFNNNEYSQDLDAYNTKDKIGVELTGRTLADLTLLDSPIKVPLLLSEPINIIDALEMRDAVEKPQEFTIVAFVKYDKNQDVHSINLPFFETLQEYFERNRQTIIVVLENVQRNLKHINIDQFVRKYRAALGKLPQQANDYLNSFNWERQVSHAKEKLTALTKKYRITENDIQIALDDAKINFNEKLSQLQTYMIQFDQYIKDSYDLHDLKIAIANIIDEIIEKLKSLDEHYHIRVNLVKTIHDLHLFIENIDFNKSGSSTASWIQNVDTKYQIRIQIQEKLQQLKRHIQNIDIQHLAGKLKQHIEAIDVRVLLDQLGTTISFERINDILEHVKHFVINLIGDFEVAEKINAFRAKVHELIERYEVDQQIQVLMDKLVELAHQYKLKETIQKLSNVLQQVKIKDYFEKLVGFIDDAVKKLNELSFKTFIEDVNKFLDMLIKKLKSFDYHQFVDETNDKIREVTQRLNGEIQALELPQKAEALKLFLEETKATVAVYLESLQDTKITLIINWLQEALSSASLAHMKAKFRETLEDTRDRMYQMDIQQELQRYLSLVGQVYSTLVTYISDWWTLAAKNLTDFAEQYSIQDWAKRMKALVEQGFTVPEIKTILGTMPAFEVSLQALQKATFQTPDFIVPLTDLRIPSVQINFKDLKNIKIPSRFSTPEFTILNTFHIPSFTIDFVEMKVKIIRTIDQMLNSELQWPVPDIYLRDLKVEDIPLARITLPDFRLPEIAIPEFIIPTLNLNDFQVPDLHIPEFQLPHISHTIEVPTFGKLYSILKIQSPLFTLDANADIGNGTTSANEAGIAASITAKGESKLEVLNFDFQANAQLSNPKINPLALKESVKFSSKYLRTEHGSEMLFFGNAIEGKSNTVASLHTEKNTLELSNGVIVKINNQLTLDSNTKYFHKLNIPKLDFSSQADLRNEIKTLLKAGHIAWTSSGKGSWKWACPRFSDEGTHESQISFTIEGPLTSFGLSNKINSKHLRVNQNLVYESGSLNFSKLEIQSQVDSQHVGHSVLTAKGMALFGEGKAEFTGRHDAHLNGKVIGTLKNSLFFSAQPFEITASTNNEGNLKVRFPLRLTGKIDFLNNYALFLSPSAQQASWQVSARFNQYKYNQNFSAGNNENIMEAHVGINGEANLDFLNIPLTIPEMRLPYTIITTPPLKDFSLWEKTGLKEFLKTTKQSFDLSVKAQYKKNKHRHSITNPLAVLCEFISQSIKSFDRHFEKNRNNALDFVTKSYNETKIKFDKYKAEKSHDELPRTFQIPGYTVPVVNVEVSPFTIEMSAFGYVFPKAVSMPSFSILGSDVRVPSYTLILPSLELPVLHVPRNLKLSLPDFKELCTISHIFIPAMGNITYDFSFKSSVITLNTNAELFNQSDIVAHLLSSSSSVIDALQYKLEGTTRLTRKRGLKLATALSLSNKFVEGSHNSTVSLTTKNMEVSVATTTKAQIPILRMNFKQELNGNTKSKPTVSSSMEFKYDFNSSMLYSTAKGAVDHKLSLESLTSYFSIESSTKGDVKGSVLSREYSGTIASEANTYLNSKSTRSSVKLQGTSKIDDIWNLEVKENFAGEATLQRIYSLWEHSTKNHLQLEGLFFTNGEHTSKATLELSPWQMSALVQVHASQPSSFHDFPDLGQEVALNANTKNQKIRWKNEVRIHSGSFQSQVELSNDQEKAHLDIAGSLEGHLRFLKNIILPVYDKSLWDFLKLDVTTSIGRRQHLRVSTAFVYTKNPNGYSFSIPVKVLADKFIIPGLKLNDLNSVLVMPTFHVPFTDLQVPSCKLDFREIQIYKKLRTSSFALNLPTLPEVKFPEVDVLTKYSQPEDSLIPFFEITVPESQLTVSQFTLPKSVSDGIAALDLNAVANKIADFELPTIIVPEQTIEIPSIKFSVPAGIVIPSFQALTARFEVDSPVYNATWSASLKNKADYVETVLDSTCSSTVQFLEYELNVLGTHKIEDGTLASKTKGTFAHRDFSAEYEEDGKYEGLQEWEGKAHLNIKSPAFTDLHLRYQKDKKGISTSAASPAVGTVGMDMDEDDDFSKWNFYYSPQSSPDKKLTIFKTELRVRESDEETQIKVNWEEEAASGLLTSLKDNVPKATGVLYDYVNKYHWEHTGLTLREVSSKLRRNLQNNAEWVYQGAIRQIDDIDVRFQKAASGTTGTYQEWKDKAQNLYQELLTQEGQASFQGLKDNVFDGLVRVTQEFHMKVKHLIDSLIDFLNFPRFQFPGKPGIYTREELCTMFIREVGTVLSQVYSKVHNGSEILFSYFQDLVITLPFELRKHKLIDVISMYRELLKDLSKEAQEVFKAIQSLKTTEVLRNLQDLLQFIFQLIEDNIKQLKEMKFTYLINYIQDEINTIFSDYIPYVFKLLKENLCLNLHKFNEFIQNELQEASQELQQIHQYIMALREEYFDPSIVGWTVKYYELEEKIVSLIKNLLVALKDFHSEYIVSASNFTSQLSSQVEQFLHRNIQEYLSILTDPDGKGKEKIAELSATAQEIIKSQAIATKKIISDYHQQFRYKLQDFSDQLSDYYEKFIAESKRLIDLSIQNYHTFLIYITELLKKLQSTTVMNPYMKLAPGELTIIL

IC50 for MCP-1 inhibition: ~10 nM
B1: orticumab (antibody, human IgG1, lambda, V domains shown)
VH: EVQLLESGGGLVQPGGSLRLSCAASGFTFSNAWMSWVRQAPGKGLEWVSSISVGGHRTYYADSVKGRSTISRDNSKNTLYLQMNSLRAEDTAVYYCARIRVGPSGGAFDYWGQGTLVTVSS
VL: QSVLTQPPSASGTPGQRVTISCSGSNTNIGKNYVSWYQQLPGTAPKLLIYANSNRPSGVPDRFSGSKSGTSASLAISGLRSEDEADYYCASWDASLNGWVFGGGTKLTVLG
